Data: patent publication US20230212235A1
pKd: −log10 of the molar value.

Assays:
[1] = target: GFP [GFP: P42212]; experiment: SPR, GFP immobilised, nanobody injected; kinetic Kd
[2] = target: GFP [GFP: P42212]; experiment: SPR, GFP immobilised, nanobody injected; equilibrium Kd
[3] = target: GFP [GFP: P42212]; experiment: SPR, GFP immobilised; order of magnitude told of all four nanobodies

pKd [1]: 7.72
pKd [2]: 6.63
koff [3]: 0.0001 s⁻¹
kon [3]: 10000 M⁻¹ s⁻¹
Substance: GBN^WT (wild-type GFP-binding nanobody) (VHH)
